Molecular target: recombinant cynomolgus monkey PD-L1 soluble protein (cynomolgus monkey) (UniProt G7PSE7)
Test: sandwich ELISA, antibody captured on anti-human Fc, biotinylated rec. cynomolgus PD-L1 titrated (x axis), fluorescence

Chain of Avelumab (antibody) (VH): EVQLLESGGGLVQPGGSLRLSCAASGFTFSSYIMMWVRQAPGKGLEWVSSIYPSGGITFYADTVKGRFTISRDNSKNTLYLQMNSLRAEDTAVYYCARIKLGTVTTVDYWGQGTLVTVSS
Chain of Avelumab (antibody) (VL): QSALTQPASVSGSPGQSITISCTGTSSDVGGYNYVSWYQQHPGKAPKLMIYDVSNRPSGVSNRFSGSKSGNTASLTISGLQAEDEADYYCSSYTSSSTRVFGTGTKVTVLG
Chain of recombinant cynomolgus monkey PD-L1 soluble protein (cynomolgus monkey) (G7PSE7 entry or part of it): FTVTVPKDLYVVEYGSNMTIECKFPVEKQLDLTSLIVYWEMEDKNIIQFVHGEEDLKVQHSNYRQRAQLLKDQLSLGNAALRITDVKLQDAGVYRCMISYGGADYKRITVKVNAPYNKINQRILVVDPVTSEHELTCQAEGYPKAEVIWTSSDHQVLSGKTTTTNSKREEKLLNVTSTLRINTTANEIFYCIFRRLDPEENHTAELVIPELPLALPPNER

Avelumab (antibody)
EC50 (read off the curve): 0.05 nM

Reference: patent US20220315655A1
